Results: PMC5032992

Key:
purified protein [1] = substrate: O=[N+]([O-])c1ccc(O[C@@H]2O[C@@H](CO)[C@H](O)[C@H]2O)cc1; test: purified protein; conditions: pH 5.0, 40 °C, 10 min, 0.1-2.0 mM substrate, 40.0 °C
purified protein [2] = substrate: O=[N+]([O-])c1ccc(O[C@@H]2O[C@H](CO)[C@@H](O)[C@H](O)[C@H]2O)cc1; test: purified protein; conditions: citrate phosphate buffer pH 5, 0.1-6 mM substrate

Protein | Km (purified protein [1]) [µM] | kcat (purified protein [1]) | Km (purified protein [2]) [µM] | kcat (purified protein [2]) [s⁻¹]
rPoAbf (recombinant α‐L‐arabinofuranosidase from Pleurotus ostreatus) (Pleurotus sp. 'Florida') (protein) QTVSVSATASHPIPTTLWGQMFEDISHSGDGGLYAELLQNRALQQVTPNTAASLNAWSAINGGQISVVADSVPVSNSLPNSLRFTVPAGRTGQVGFANSGFFGMKIVASSTYKGSFFVKFPTASSFTGNLIVGLRTTSGSTIVSQTVPIRGASTSWQQISVSLTPRTTPPSTDNQFFVTIDGAAASGQTINFAMFSLFPPTFKNRANGMRDDIATALAEMKPKFFRFPGGNNLEGQTVPTRWQWNATIGSLLDRPGRAGDWGYINTDGLGLLEYLLFCEDLGMEPIMAVWAGFALGGTSVAQNGLQPYIQQAIDQINFVIGDPATSAPAARRAALGRAQPFKLTYVEIGNEDFFASDTYTYRWPAFVNALRGAFPNLKFIATSNINSPVLSPNPAQWDHHVYQTPTWFAQNSFFYDDMPRNGVTFFEGEYAAISTNPNDIFGSPANGRLTFSTMQSASGEAAYMIGMERNSDIVFAASYAPLLGHVAGSQWTPNLIAFDTGNVYRSASYFVQKLFSTNMGNEYIPSTLPSRTGTAFWGVTRNTATGEIIIKVSNTVAAQANLTFVLPFANVATSGSLQVLTGAATASNSPTTPSALAPATRTITTGKTFTFAAAGFSVNVITIKAS | 640 ± 110 | 3,010 ± 145 Min^−1 | 4070 ± 150 | 0.183 ± 0.01
rPoAbf (recombinant α‐L‐arabinofuranosidase from Pleurotus ostreatus) (Pleurotus sp. 'Florida'; S160G) (protein) QTVSVSATASHPIPTTLWGQMFEDISHSGDGGLYAELLQNRALQQVTPNTAASLNAWSAINGGQISVVADSVPVSNSLPNSLRFTVPAGRTGQVGFANSGFFGMKIVASSTYKGSFFVKFPTASSFTGNLIVGLRTTSGGTIVSQTVPIRGASTSWQQISVSLTPRTTPPSTDNQFFVTIDGAAASGQTINFAMFSLFPPTFKNRANGMRDDIATALAEMKPKFFRFPGGNNLEGQTVPTRWQWNATIGSLLDRPGRAGDWGYINTDGLGLLEYLLFCEDLGMEPIMAVWAGFALGGTSVAQNGLQPYIQQAIDQINFVIGDPATSAPAARRAALGRAQPFKLTYVEIGNEDFFASDTYTYRWPAFVNALRGAFPNLKFIATSNINSPVLSPNPAQWDHHVYQTPTWFAQNSFFYDDMPRNGVTFFEGEYAAISTNPNDIFGSPANGRLTFSTMQSASGEAAYMIGMERNSDIVFAASYAPLLGHVAGSQWTPNLIAFDTGNVYRSASYFVQKLFSTNMGNEYIPSTLPSRTGTAFWGVTRNTATGEIIIKVSNTVAAQANLTFVLPFANVATSGSLQVLTGAATASNSPTTPSALAPATRTITTGKTFTFAAAGFSVNVITIKAS | 890 ± 190 | 2,590 ± 165 Min^−1 | 5030 ± 120 | 0.383 ± 0.015
